Data: patent US20100104554

Assays:
[1] = target: T1, recombinant human cathepsin S propeptide (residues 17-113) with N-terminal hexahistidine tag, expressed from pQE30
T1 chain: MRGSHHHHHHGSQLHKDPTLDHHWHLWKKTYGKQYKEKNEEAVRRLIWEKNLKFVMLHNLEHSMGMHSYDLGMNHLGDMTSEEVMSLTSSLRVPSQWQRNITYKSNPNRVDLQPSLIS

B1: human cathepsin S (Calbiochem) (protein)
chain: LPDSVDWREKGCVTEVKYQGSCGACWAFSAVGALEAQLKLKTGKLVSLSAQNLVDCSTEKYGNKGCNGGFMTTAFQYIIDNKGIDSDASYPYKAMDLKCQYDSKYRAATCSKYTELPYGREDVLKEAVANKGPVSVGVDARHPSFFLYRSGVYYEPSCTQNVNHGVLVVGYGDLNGKEYWLVKNSWGHNFGEEGYIRMARNKGNHCGIASFPSYPEI
B1 was tested, and the “elastinolytic turnover of Elastin-DQ by CatS over a 60 minute incubation” value [1] was “the inventors were able to demonstrate inhibition of this activity”, the “hydrolysis of Cbz-Val-Val-Arg-AMC by CatS (fluorometric assay), rCatSPP 0 nM to 500 nM” value [1] was “the dose-dependent inhibition of CatS activity was observed” and the “hydrolysis of Z-VVR-AMC by CatS (fluorometric assay)” value (Fc-control protein) was “The Fc-control protein (200 nM) had no discernable effects on CatS activity”.
